Laboratory results taken from PMC7853477.

Columns and labels:
[1] = target: SARS-CoV-2 S protein receptor-binding domain RBDv1 (319–541) with C-terminal c-myc and 6xHis tags (SARS-CoV-2) (UniProt P0DTC2); test: non-reducing SDS-PAGE with gel densitometry
[2] = target: SARS-CoV-2 S protein receptor-binding domain RBDv2 (320–537) with C-terminal c-myc and 10xHis tags (SARS-CoV-2) (UniProt P0DTC2); test: non-reducing SDS-PAGE with gel densitometry

Q: For “SARS-CoV-2 S protein receptor-binding domain RBDv1 (319–541) with C-terminal c-myc and 6xHis tags (from UniProt P0DTC2 319-541) (domain or fragment)”, which stoichiometry N [1] is on record?
A: Its stoichiometry N is 2.

Q: Which percent covalent dimer [2] does the source give for “SARS-CoV-2 S protein receptor-binding domain RBDv2 (320–537) with C-terminal c-myc and 10xHis tags (from UniProt P0DTC2 320-537) (domain or fragment)” here?
A: The percent covalent dimer was 6%.

Q: What about the stoichiometry N [2] of the same substance?
A: The stoichiometry N was 2.
